Results on four molecules are retold here after patent US20100298542A1 (Chugai, published 2010).

Numbering of substitutions follows the chain as printed.

In assay [1] the target is T1, soluble human FcRn (complex of FcRn extracellular domain and β2-microglobulin) (human, UniProt P55899 24-290; P16213 21-119).
T1 construct: The stated ranges are those of the expressed constructs and contain the signal regions; Expressed in HEK293H cells, purified on IgG Sepharose and HiTrap Q; also called hFcRn
Description: SPR (Biacore 3000), antibody captured on Protein L or anti-human kappa antibody, human FcRn as analyte, pH 6.0, steady state affinity. On the procedure:
(§1) The binding to human FcRn was assessed using Biacore 3000. […] Human FcRn was then injected and the binding of the human FcRn to antibody was assessed. The affinity was computed using BIAevaluation Software. The obtained sensorgram was used to calculate the amount of hFcRn bound to the antibody immediately before the end of human FcRn injection. The affinity of the antibody for human FcRn was calculated by fitting with the steady state affinity method.
In general terms: Surface plasmon resonance follows binding to a sensor surface in real time, without labels.

Assay [2] deals with T1, soluble human FcRn (complex of FcRn …). Put plainly: SPR (Biacore 3000), human FcRn, pH 6.0, steady state affinity. On the procedure:
as §1

The target is the same in assay [3]. Put plainly: SPR (Biacore 3000), method of Example 6: captured antibody, human FcRn as analyte, pH 6.0, steady state affinity. On the procedure: as §1

T1 sequence (P55899 24-290 limits assumed, chain 1 of 2): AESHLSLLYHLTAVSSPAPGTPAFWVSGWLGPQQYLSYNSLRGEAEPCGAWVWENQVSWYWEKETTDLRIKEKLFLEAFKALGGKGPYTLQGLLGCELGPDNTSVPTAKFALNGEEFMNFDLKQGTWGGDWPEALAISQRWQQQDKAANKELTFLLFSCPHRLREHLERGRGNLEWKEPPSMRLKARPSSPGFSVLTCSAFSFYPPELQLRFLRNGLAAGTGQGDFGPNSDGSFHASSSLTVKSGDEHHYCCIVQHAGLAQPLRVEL
T1 sequence (P16213 21-119 limits assumed, chain 2 of 2): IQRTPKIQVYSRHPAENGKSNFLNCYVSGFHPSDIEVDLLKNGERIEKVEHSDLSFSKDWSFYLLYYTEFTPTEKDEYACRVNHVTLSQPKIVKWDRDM

B1: WT-M14ΔGK (humanized PM-1 variable region, M14ΔGK constant region) (antibody)
heavy: QVQLQESGPGLVRPSQTLSLTCTVSGYSITSDHAWSWVRQPPGRGLEWIGYISYSGITTYNPSLKSRVTMLRDTSKNQFSLRLSSVTAADTAVYYCARSLARTTAMDYWGQGSLVTVSSASTKGPSVFPLAPSSKSTSGGTAALGCLVKDYFPEPVTVSWNSGALTSGVHTFPAVLQSSGLYSLSSVVTVPSSNFGTQTYTCNVDHKPSNTKVDKTVERKSCVECPPCPAPPVAGPSVFLFPPKPKDTLMISRTPEVTCVVVDVSHEDPEVQFNWYVDGVEVHNAKTKPREEQFNSTFRVVSVLTVVHQDWLNGKEYKCKVSNKGLPSSIEKTISKAKGQPREPQVYTLPPSREEMTKNQVSLTCLVKGFYPSDIAVEWESNGQPENNYKTTPPVLDSDGSFFLYSKLTVDKSRWQQGNVFSCSVMHEALHNHYTQKSLSLSP
light: DIQMTQSPSSLSASVGDSVTITCQASQDISSYLNWYQQKPGKAPELLIYYGSELHSGVPSRFSGSGSGTDFTFTISSLEAEDAATYYCQQGNSLPYTFGQGTKVEIE
notes: copies: 2 + 2
Broadly, the Kd is a measure of binding affinity in units of concentration. Read a low Kd as tighter binding. As to B1, the Kd in assay [1] is 1850 nM.

B2: WT-M44 (humanized PM-1 antibody, IgG1 constant region with alanine at position 434, EU numbering) (antibody)
heavy: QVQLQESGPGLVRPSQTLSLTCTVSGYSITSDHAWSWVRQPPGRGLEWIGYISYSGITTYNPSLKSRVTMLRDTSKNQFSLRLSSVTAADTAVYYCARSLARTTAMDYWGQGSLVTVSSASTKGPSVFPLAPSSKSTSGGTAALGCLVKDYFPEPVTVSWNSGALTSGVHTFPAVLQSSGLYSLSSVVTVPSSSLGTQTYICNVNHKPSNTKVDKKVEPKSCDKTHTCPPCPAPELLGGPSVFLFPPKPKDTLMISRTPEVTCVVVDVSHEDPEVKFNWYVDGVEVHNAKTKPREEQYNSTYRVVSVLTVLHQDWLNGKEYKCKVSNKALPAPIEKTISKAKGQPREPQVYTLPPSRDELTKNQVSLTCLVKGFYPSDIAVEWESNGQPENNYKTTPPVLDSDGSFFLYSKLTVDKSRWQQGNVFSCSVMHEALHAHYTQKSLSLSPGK
light: B1 light
notes: copies: 2 + 2
Turning to B2, in assay [2], the “binding as a multiple of that of WT-IgG1” value is ~2.7 times that of WT-IgG1. The molecule further returned a Kd in assay [1] of 590 nM.

B3: WT-M58 (humanized PM-1 variable region, M58 constant region) (antibody)
heavy: B1 heavy with H266Q, S328A, S329P, A337T, R353Q, V395M, Q417E
light: B1 light
notes: copies: 2 + 2
B3: the “binding as a multiple of that of WT-IgG1” value in assay [2] is ~1.4 times that of WT-IgG1. In addition, the Kd in assay [1] turned out to be 1170 nM; in assay [3], 1030 nM.

B4: WT-M73 (humanized PM-1 variable region, M73 constant region) (antibody)
heavy: B1 heavy with H266Q, S328A, S329P, A337T, R353Q, V395M, Q417E, N432A
light: B1 light
notes: copies: 2 + 2
As for B4, in assay [2], the “binding as a multiple of that of WT-IgG1” value is ~3.8 times that of WT-IgG1. The molecule further returned a Kd in assay [1] of 420 nM.
